Source: patent publication US20210061859A1, “NTCP Inhibitor” (The University of Tokyo, priority 2018, published 2021)
Where a SMILES comes first, the peptide text is derived from it. Bridges are numbered along the chain shown (N, C = ends). [ ]: non-standard residue; d: D form. NMeS = CN[C@@H](CO)C(=O)O; NMeA = CN[C@@H](C)C(=O)O; Sar = CNCC(=O)O

T1: human NTCP (Homo sapiens, UniProt Q14973)
T1 construct: made in house; host or cells: wheat germ cell-free protein synthesis system
T1 sequence (Q14973 1-349): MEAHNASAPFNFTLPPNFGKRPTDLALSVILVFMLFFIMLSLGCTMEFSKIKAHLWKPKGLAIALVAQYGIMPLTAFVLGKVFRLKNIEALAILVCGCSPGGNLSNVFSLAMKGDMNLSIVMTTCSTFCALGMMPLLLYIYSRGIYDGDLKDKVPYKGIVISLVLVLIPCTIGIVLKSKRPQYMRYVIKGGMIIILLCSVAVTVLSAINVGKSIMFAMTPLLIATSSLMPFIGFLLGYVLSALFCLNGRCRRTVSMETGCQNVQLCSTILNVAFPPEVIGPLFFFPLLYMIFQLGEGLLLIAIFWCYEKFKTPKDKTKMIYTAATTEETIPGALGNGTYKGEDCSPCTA

T2: His-tagged recombinant NTCP protein (human sodium taurocholate cotransporting polypeptide) (human), Q14973
T2 chain: T1 sequence (Q14973 1-349)


Legend:
human NTCP = target: T1, human NTCP; test: Surface plasmon resonance binding to immobilized recombinant NTCP; settings: Kd, single-cycle kinetics, 1:1 binding model, NTCP immobilized on NTA-Ni2+
Description: (§1) FIG. 7 is a diagram showing the NTCP association constant of a peptide identified by first RaPID screening. A single-cycle reaction kinetics experiment was conducted using NTCP immobilized on surface (NTA-Ni^2+) involving varying concentrations of a cyclic peptide analyte. In each case, as shown in the drawing, the peptide was tested with 4-fold serial dilutions starting from the highest concentration of 200 or 1000 nM. A dissociation constant (KD) was determined using a 1:1 binding model.
as §1, with “9” for “7”, “focused library” for “first”, “association constant” for “reaction kinetics”
The association constant of each peptide for human NTCP was measured using a Biacore T200 apparatus (GE Healthcare Japan Corp.). The running buffer solution used was HBS-P+ (10 mM HEPES, 150 mM NaCl, and 0.05 vol % surfactant P20, pH 7.4) containing 0.1 vol % DMSO and 1 mM β-dodecyl-maltoside. 100 nM recombinant NTCP was immobilized on a NTA chip treated with Ni^2+ according to the manufacturer's instructions (baseline response: 1000 to 3000 refraction units). Peptides were injected as analytes at a flow rate of 60 μL/min, and association constants were modelled using a 1:1 binding model.

[1] = target: T2, His-tagged recombinant NTCP protein …; test: SPR (Biacore T200), single-cycle kinetics, His-NTCP on Ni2+-NTA chip, peptide as analyte, 1:1 model

Row | Kd [1] | Molecule | Kd (human NTCP)
1 |  | CC[C@H](C)[C@@H]1NC(=O)[C@H](Cc2ccc(O)cc2)NC(=O)[C@H](CC(C)C)NC(=O)[C@H](C)NC(=O)[C@H]([C@@H](C)O)NC(=O)[C@H](CC(N)=O)NC(=O)[C@H](Cc2c[nH]c3ccccc23)NC(=O)[C@H](CCC(=O)O)NC(=O)[C@@H]2CCCN2C(=O)[C@H](Cc2ccc(O)cc2)NC(=O)[C@H](Cc2c[nH]c3ccccc23)NC(=O)[C@H](Cc2ccc(O)cc2)NC(=O)[C@H](Cc2c[nH]cn2)NC(=O)[C@@H](Cc2ccc(O)cc2)NC(=O)CSC[C@@H](C(=O)NCC(N)=O)NC(=O)[C@@H]2CCCN2C(=O)[C@H](Cc2c[nH]c3ccccc23)NC1=O [D3] ({CH2CO}-[dY]HYWYPEWNTALYIWPCG-NH2; thioether N-17) | 50 nM
2 |  | CC[C@H](C)[C@@H]1NC(=O)[C@H](Cc2c[nH]c3ccccc23)NC(=O)[C@H]([C@@H](C)O)NC(=O)[C@@H](Cc2ccc(O)cc2)NC(=O)CSC[C@@H](C(=O)N[C@H](C(N)=O)[C@@H](C)O)NC(=O)[C@@H]2CCCN2C(=O)[C@H](Cc2ccccc2)NC(=O)[C@H](Cc2ccc(O)cc2)NC(=O)[C@H](C(C)C)NC(=O)[C@H](C(C)C)NC(=O)[C@H](Cc2ccc(O)cc2)NC(=O)[C@H](CC(C)C)NC(=O)CN(C)C(=O)CN(C)C(=O)[C@H](Cc2c[nH]c3ccccc23)NC1=O [WD2] ({CH2CO}-[dY]TWIW[Sar][Sar]LYVVYFPCT-NH2; thioether N-15) | 14 nM
3 |  | CC[C@H](C)[C@@H]1NC(=O)[C@H](Cc2c[nH]c3ccccc23)NC(=O)[C@H]([C@@H](C)CC)NC(=O)[C@H](CCC(N)=O)NC(=O)[C@H](C)N(C)C(=O)[C@H](Cc2ccc(O)cc2)NC(=O)[C@H]([C@@H](C)O)NC(=O)[C@H](Cc2ccccc2)NC(=O)[C@H]([C@@H](C)O)NC(=O)[C@@H](Cc2ccc(O)cc2)NC(=O)CSC[C@@H](C(=O)N[C@H](C(N)=O)[C@@H](C)O)NC(=O)CN(C)C(=O)[C@H](Cc2ccc(O)cc2)NC(=O)[C@H](Cc2ccc(O)cc2)NC(=O)[C@H](Cc2c[nH]c3ccccc23)NC1=O [WD4] ({CH2CO}-[dY]TFTY[NMeA]QIWIWYY[Sar]CT-NH2; thioether N-15) | 11 nM
4 |  | CC(C)C[C@@H]1NC(=O)[C@H](Cc2ccccc2)NC(=O)[C@H](C)NC(=O)[C@H](CO)N(C)C(=O)[C@H](CC(N)=O)NC(=O)[C@H](Cc2c[nH]c3ccccc23)NC(=O)[C@H]([C@@H](C)O)NC(=O)[C@H](Cc2c[nH]c3ccccc23)NC(=O)[C@H]([C@@H](C)O)NC(=O)[C@H](Cc2ccc(O)cc2)NC(=O)CSC[C@@H](C(=O)N[C@H](C(N)=O)[C@@H](C)O)NC(=O)[C@H](Cc2ccc(O)cc2)NC(=O)[C@H](C(C)C)NC(=O)[C@H](Cc2ccc(O)cc2)NC1=O [WL6] ({CH2CO}-YTWTWN[NMeS]AFLYVYCT-NH2; thioether N-14) | 36 nM
5 |  | CC[C@H](C)[C@@H]1NC(=O)[C@H](Cc2ccc(O)cc2)NC(=O)[C@H](Cc2ccc(O)cc2)NC(=O)[C@H](Cc2c[nH]cn2)NC(=O)[C@H](Cc2c[nH]cn2)NC(=O)[C@H]([C@@H](C)O)NC(=O)[C@H](CC(N)=O)NC(=O)[C@H](Cc2c[nH]c3ccccc23)NC(=O)[C@H]([C@@H](C)O)NC(=O)[C@H](Cc2ccc(O)cc2)NC(=O)CSC[C@@H](C(=O)NCC(N)=O)NC(=O)[C@H](CC(N)=O)NC(=O)[C@H](CC(C)C)NC(=O)[C@H](Cc2c[nH]c3ccccc23)NC1=O [L5] ({CH2CO}-YTWNTHHYYIWLNCG-NH2; thioether N-14) | 4 nM
6 |  | CC(C)C[C@@H]1NC(=O)[C@H](Cc2ccc(O)cc2)NC(=O)CSC[C@@H](C(=O)NCC(N)=O)NC(=O)[C@H](C(C)C)NC(=O)[C@H](CC(N)=O)NC(=O)[C@H](Cc2ccc(O)cc2)NC(=O)[C@H](C)NC(=O)[C@H](Cc2ccc(O)cc2)NC(=O)[C@H](CO)NC(=O)[C@H]([C@@H](C)O)NC(=O)[C@H](CC(N)=O)NC(=O)[C@@H]2CCCN2C(=O)[C@H](Cc2c[nH]c3ccccc23)NC(=O)[C@H]([C@@H](C)O)NC(=O)[C@H](Cc2c[nH]c3ccccc23)NC(=O)[C@H](CC(C)C)NC(=O)[C@H](Cc2ccc(O)cc2)NC1=O [L4] ({CH2CO}-YLYLWTWPNTSYAYNVCG-NH2; thioether N-17) | 30 nM
7 |  | CC(C)C[C@@H]1NC(=O)[C@H](CC(=O)O)NC(=O)[C@H](CC(C)C)NC(=O)[C@H](Cc2ccccc2)NC(=O)[C@H](Cc2c[nH]c3ccccc23)NC(=O)[C@H](CO)NC(=O)[C@H](CCCNC(=N)N)NC(=O)[C@H](CCC(=O)O)NC(=O)[C@H](C)NC(=O)[C@H](Cc2c[nH]c3ccccc23)NC(=O)[C@H](CC(C)C)NC(=O)[C@H](CC(C)C)NC(=O)[C@H](Cc2c[nH]c3ccccc23)NC(=O)[C@H](C(C)C)NC(=O)[C@H](Cc2ccc(O)cc2)NC(=O)CSC[C@@H](C(=O)NCC(N)=O)NC(=O)CNC1=O [L2] ({CH2CO}-YVWLLWAERSWFLDLGCG-NH2; thioether N-17) | 374 nM
8 |  | CC(C)C[C@@H]1NC(=O)[C@H](Cc2ccc(O)cc2)NC(=O)[C@H](C)NC(=O)[C@H](CO)N(C)C(=O)[C@H](Cc2c[nH]cn2)NC(=O)[C@H](Cc2c[nH]c3ccccc23)NC(=O)[C@H]([C@@H](C)O)NC(=O)[C@H](Cc2c[nH]c3ccccc23)NC(=O)[C@H]([C@@H](C)O)NC(=O)[C@H](Cc2ccc(O)cc2)NC(=O)CSC[C@@H](C(=O)N[C@H](C(N)=O)[C@@H](C)O)NC(=O)[C@H](Cc2ccccc2)NC(=O)[C@H](C(C)C)NC(=O)[C@H](Cc2ccc(O)cc2)NC1=O [WL3] ({CH2CO}-YTWTWH[NMeS]AYLYVFCT-NH2; thioether N-14) | 57 nM
9 |  | CC[C@H](C)[C@@H]1NC(=O)[C@H](Cc2c[nH]cn2)NC(=O)[C@H]([C@@H](C)CC)NC(=O)[C@H](CO)N(C)C(=O)[C@@H]2CCCN2C(=O)[C@H](Cc2ccc(O)cc2)NC(=O)[C@H](Cc2ccc(O)cc2)NC(=O)[C@H]([C@@H](C)CC)NC(=O)[C@H](Cc2ccc(O)cc2)NC(=O)[C@H](CC(N)=O)NC(=O)[C@@H](Cc2ccc(O)cc2)NC(=O)CSC[C@@H](C(=O)N[C@H](C(N)=O)[C@@H](C)O)NC(=O)[C@H](CC(C)C)NC(=O)[C@H](Cc2ccc(O)cc2)NC(=O)[C@H](Cc2ccccc2)NC1=O [PD1] ({CH2CO}-[dY]NYIYYP[NMeS]IHIFYLCT-NH2; thioether N-15) | 149 nM
10 | 15 nM | YALIWTWSQYYQYYSCT (modifications not checked) [WD3] | 
11 | 149 nM | YNYIYYPSIHIFYLCT (modifications not checked) [PD1] | 
12 | 14 nM | YWWAINPHIHVFTWPCG (modifications not checked) [NTCP-D2] | 
13 | 50 nM | YHYWYPEWNTALYIWPCG (modifications not checked) [NTCP-D3] | 
14 | 10 nM | YTWTWQNSFIWIYCT (modifications not checked) [WL5] | 
15 | 36 nM | YTWTWNSAFLYVYCT (modifications not checked) [WL6] | 
16 | 2270 nM | YILVYPELHLFLLYSCG (modifications not checked) [NTCP-D4] | 
17 | 11 nM | YTFTYAQIWIWYYGCT (modifications not checked) [WD4] | 
18 | 374 nM | YVWLLWAERSWFLDLGCG (modifications not checked) [NTCP-L2] | 
19 | 360 nM | YTYKYSGIWIWIWCT (modifications not checked) [WL1] | 
20 | 30 nM | YLYLWTWPNTSYAYNVCG (modifications not checked) [NTCP-L4] | 
21 | 21 nM | YLYTWTWHSNWTVTSLCG (modifications not checked) [NTCP-L1] | 
22 | 13 nM | YLWIFHQNWYTFDLGCG (modifications not checked) [NTCP-L3] | 
23 | 57 nM | YTWTWHSAYLYVFCT (modifications not checked) [WL3] | 
24 | 4 nM | YTWNTHHYYIWLNCG (modifications not checked) [NTCP-L5] | 
25 | 14 nM | YTWIWGGLYVVYFPCT (modifications not checked) [WD2] | 
